Assay results reported in patent publication US20240327495A1 (OXFORD UNIVERSITY INNOVATION, published 2024).

Biological target: C. difficile toxin B glucosyltransferase domain (GTD, residues 2-543) (Clostridium difficile, UniProt P18177 2-543)
Sequence (P18177 2-543 limits assumed): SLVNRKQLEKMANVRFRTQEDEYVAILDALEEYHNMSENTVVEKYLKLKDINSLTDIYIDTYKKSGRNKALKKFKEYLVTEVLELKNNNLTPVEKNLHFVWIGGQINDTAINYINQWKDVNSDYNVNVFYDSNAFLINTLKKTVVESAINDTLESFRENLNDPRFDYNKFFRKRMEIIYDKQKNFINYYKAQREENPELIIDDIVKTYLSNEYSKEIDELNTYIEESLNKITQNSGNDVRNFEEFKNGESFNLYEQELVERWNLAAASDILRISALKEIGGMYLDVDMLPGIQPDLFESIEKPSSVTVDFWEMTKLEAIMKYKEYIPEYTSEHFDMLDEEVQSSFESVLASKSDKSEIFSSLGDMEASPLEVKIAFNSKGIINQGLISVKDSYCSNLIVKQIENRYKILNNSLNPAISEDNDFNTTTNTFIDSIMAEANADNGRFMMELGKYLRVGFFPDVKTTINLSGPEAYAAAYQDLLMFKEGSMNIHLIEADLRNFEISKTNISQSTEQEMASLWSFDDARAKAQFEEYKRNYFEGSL

B1: GT01 R63A (designed binder, not shown: small tags and cut ends)
chain: DFVLDNEGNPLENGGTYYILSDYGRQLFGGIRAAPTGNERCPLTVVQSLFRNHRDKGIGTIISSPYAIRFIAEGHPLSLKFDSFAVIMLCVGIPTEWSVVEDLPEGPAVKIGENKDAMDGWFRLERVSDDEFNNYKLVFCPQQAEDDKCGDIGISIDHDDGTRRLVVSKNKPLVVQFQKLDKESL
In the case of B1, the “EC50 (read off the curve)” value is reported as about 7 nM.
